Measurements as given in patent US5888732.

Assays:
[1] = test system: Lambda integrase (Int) + IHF; assay: cleavage_in_vitro; conditions: agarose gel; 50 mM Tris pH 7.8, 70 mM KCl, 5 mM spermidine, 25 C 45 min
[2] = target: Lambda integrase (Int) + excisionase (Xis) + IHF (UniProt P03700+P03699+P0A6X7+P0A6Y1); assay: cell_activity
[3] = target: Cre recombinase (bacteriophage P1) (UniProt P06956); assay: cell_activity; conditions: 140 without Cre
Chain of UniProt P06956 (P06956 whole entry): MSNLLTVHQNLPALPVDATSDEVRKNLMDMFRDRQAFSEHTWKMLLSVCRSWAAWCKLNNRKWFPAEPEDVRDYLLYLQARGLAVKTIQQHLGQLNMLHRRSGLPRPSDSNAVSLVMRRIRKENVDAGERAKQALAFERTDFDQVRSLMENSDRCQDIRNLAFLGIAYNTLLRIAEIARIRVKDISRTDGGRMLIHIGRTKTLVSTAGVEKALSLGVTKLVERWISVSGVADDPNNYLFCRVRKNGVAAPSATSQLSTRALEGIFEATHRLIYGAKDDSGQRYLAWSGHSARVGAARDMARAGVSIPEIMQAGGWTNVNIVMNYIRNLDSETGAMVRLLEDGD

Chain of UniProt P03700 (P03700 whole entry, chain 1 of 4): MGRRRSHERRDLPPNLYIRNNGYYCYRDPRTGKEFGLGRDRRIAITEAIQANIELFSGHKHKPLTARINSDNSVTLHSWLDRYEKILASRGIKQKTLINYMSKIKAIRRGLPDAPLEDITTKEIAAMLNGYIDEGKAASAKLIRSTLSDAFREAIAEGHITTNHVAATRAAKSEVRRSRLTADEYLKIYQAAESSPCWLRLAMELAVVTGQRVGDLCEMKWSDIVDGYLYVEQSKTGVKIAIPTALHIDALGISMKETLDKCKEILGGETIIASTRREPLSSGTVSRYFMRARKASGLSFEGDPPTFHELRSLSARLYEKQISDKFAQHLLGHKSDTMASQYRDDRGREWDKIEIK
Chain of UniProt P03700 (P03699 whole entry, chain 2 of 4): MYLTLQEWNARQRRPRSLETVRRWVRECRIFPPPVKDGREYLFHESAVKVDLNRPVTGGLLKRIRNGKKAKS
Chain of UniProt P03700 (P0A6X7 2-99, chain 3 of 4): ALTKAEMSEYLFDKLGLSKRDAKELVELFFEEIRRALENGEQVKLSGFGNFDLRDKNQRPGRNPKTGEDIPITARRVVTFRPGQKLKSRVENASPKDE
Chain of UniProt P03700 (P0A6Y1 whole entry, chain 4 of 4): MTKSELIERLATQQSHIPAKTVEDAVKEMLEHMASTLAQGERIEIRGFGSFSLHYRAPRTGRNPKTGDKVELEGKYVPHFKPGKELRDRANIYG

In the case of “attB wild type (pEZC705) ; attP wild type (pEZC726)”, the activity (% of total DNA converted to cointegrate) [1] is reported as 5.
For attR1 (pEZC1305) ; attLwt (pEZC1313), the activity (kanamycin resistant colonies) ([2]; with Cre/loxP, background 1) was 4.
attR2 (pEZC1309) ; attLwt (pEZC1313) was tested, and the activity (kanamycin resistant colonies) ([2]; with Cre/loxP, background 9) was 0.
“attRwt (lacking P1 and H1; pEZC1301) ; attL1 (pEZC1317)” was tested, and the activity (kanamycin resistant colonies) ([2]; with Cre/loxP, background 1) was 47.
Substance “attRwt (lacking P1 and H1; pEZC1301) ; attL2 (pEZC1321)” has an activity (kanamycin resistant colonies) ([2]; with Cre/loxP, background 1) of 0.
Substance “attRwt (lacking P1 and H1; pEZC1301) ; attLwt (pEZC1313)” has an activity (kanamycin resistant colonies) ([2]; in vitro recombination with Cre on loxP as second site, background 1) of 147.
Work on loxP 511 yielded an activity (kanamycin resistant colonies) ([3]; same reaction as loxP, both sites required for product) of 760.
In the case of loxP wild type, the activity (kanamycin resistant colonies) ([3]; pEZC602 x pEZC629 via loxP and loxP 511, 37 C, 33 mM NaCl) is reported as 760.
